Results on 84 variants are retold here after the RNAGym collection of RNA variant scans (doi:10.1093/molbev/msab373).

B1: Azoarcus group I ribozyme (parent)
chain: GUGCCUUGCGCCGGGAAACCACGCAAGGGAUGGUGUCAAAUUCGGCGAAACCUAAGCGCCCGCCCGGGCGUAUGGCAACGCCGAGCCAAGCUUCGGCGCCUGCGCCGAUGAAGGUGUAGAGACUAGACGGCACCCACCUAAGGCAAACGCUAUGGUGAAGGCAUAGUCCAGGGAGUGGCGAAAGUCACACAAACCGG

Variants of B1 are the subject of the series. The series can be described thus: reverse-splicing fitness (ratio to wild type); higher = more active; in vitro selection; Mg2+ level not given. The essentials: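 An in vitro group I ribozyme library with randomized positions was T7-transcribed and gel-purified. In triplicate, 10 pmol RNA in EPPS pH 7.5 was reacted with 50 pmoles of a 30-nt RNA substrate for 1 h at 37 °C across several added MgCl2 levels (1–48 mM), then stopped with EDTA. Products were reverse transcribed from a substrate-complementary primer, PCR-amplified and sequenced (HiSeq 4000). Fitness is a variant's read proportion after selection over that before, normalised to wild type.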
As for C82G A111U A120U A145C U176A, the reverse-splicing fitness amounted to 0.00848.
On to C82G A111U A120U A145C U176G, for which the reverse-splicing fitness amounted to 0.00404.
Regarding C82G A111U A120U A145C U176C, the reverse-splicing fitness is 0.0125.
C82G A111U A120U A145G C169A U176C: the reverse-splicing fitness was 0.00529.
With C82G A111U A120U A145G C169A U176A, the reverse-splicing fitness came to 0.00574.
For the variant C82G A111U A120U A145G C169A U176G, the reverse-splicing fitness worked out at 0.00196.
C82G A111U A120G A145G U176A: the reverse-splicing fitness was determined as 0.0125.
As for C82G A111U A120G A145G U176C, the reverse-splicing fitness was found to be 0.0176.
As for C82G A111U A120G A145G U176G, the reverse-splicing fitness was 0.0077.
For C82G A111U A120U A145C C150G C169G, the reverse-splicing fitness was 0.00344.
As for C82G A111U A120U A145C C150G C169A, the reverse-splicing fitness is 0.00362.
The same measure for C82G A111U A120U A145C C150G C169U: 0.00336.
C82G A111U A120G C150U C169G: the reverse-splicing fitness worked out at 0.0112.
In the case of C82G A111U A120G C150U C169A, the reverse-splicing fitness came out at 0.0112.
The figure for C82G A111U A120G C150U C169U is 0.0101; for C82G A111U A120U A145G C150A C169U it is 0.00464.
For the variant C82G A111U A120U A145G C150A C169A, the reverse-splicing fitness turned out to be 0.00617.
Consider C82G A111U A120U A145G C150A C169G, for which the reverse-splicing fitness is 0.00555.
Take C82G A111U A120G A145U C150U C169G U176A: the reverse-splicing fitness came out at 0.0145.
With C82G A111U A120G A145U C150U C169G U176C, the reverse-splicing fitness amounted to 0.017.
The same measure for C82G A111U A120G A145U C150U C169G U176G: 0.00511.
The same measure for C82G A111U A120G C150U C169U U176A: 0.0199; for C82G A111U A120G C150U C169U U176G: 0.00743; for C82G A111U A120G C150U C169U U176C: 0.0168.
For the variant C82G A111U A120U A145U C150G C169G U176A, the reverse-splicing fitness is 0.0031.
For C82G A111U A120U A145U C150G C169G U176C, the reverse-splicing fitness is 0.00282.
The figure for C82G A111U A120U A145U C150G C169G U176G is 0.0021.
Consider C82G A111U A120U A145U C150A C169U U176A, for which the reverse-splicing fitness came out at 0.00313.
On to C82G A111U A120U A145U C150A C169U U176C, for which the reverse-splicing fitness came out at 0.00276.
Consider C82G A111U A120U A145U C150A C169U U176G, for which the reverse-splicing fitness was determined as 0.00195.
Turning to C82G A111U A120U, the reverse-splicing fitness came out at 0.0462.
The same measure for C82G A111U A120U A145U C150U U176C: 0.0131; for C82G A111U A120U A145U C150U U176G: 0.00302.
Take C82G A111U A120U A145U C150U U176A: the reverse-splicing fitness was 0.00894.
As for C82G A111U A120G A145U C169A U176A, the reverse-splicing fitness stood at 0.0133.
The figure for C82G A111U A120G A145U C169A U176G is 0.00445; for C82G A111U A120G A145U C169A U176C it is 0.0135; for C82G A111U A120G A145U C169U it is 0.01.
As for C82G A111U A120G A145U C169A, the reverse-splicing fitness turned out to be 0.00825.
Take C82G A111U A120G A145U C169G: the reverse-splicing fitness was 0.0137.
With C82G A111U A120U A145G C150U C169A U176A, the reverse-splicing fitness turned out to be 0.0082.
C82G A111U A120U A145G C150U C169A U176G: the reverse-splicing fitness was determined as 0.00276.
In the case of C82G A111U A120U A145G C150U C169A U176C, the reverse-splicing fitness was 0.00451.
With C82G A111U A120U A145G C150G C169A U176C, the reverse-splicing fitness is 0.0086.
As to C82G A111U A120U A145G C150G C169A U176A, the reverse-splicing fitness amounted to 0.0114.
On to C82G A111U A120U A145G C150G C169A U176G, for which the reverse-splicing fitness stood at 0.00502.
As for C82G A111U A120G A145U C150G C169U U176A, the reverse-splicing fitness stood at 0.0111.
As to C82G A111U A120G A145U C150G C169U U176G, the reverse-splicing fitness worked out at 0.00505.
Consider C82G A111U A120G A145U C150G C169U U176C, for which the reverse-splicing fitness is 0.013.
C82G A111U A120G A145U C150A C169A U176C: the reverse-splicing fitness is 0.0142.
Take C82G A111U A120G A145U C150A C169A U176A: the reverse-splicing fitness is 0.0161.
As to C82G A111U A120G A145U C150A C169A U176G, the reverse-splicing fitness was 0.00527.
For C82G A111U A120U A145G C150G U176C, the reverse-splicing fitness turned out to be 0.00861.
The same measure for C82G A111U A120U A145G C150G U176A: 0.00648.
C82G A111U A120U A145G C150G U176G: the reverse-splicing fitness was determined as 0.00462.
C82G A111U A120G A145G C169U: the reverse-splicing fitness was found to be 0.00985.
With C82G A111U A120G A145G C169G, the reverse-splicing fitness came out at 0.0141.
Regarding C82G A111U A120G A145G C169A, the reverse-splicing fitness is 0.0111.
The figure for C82G A111U A120G A145U C150U C169A U176C is 0.0128.
As for C82G A111U A120G A145U C150U C169A U176G, the reverse-splicing fitness is 0.00501.
For C82G A111U A120G A145U C150U C169A U176A, the reverse-splicing fitness is 0.0149.
In the case of C82G A111U A120U A145C C169U, the reverse-splicing fitness came out at 0.00386.
Consider C82G A111U A120U A145C C169G, for which the reverse-splicing fitness was determined as 0.00383.
Turning to C82G A111U A120U A145C C169A, the reverse-splicing fitness is 0.00222.
The figure for C82G A111U A120U A145C C150A C169A U176A is 0.00214; for C82G A111U A120U A145C C150A C169A U176C it is 0.00215.
For the variant C82G A111U A120U A145C C150A C169A U176G, the reverse-splicing fitness was found to be 0.0022.
Consider C82G A111U A120U A145C, for which the reverse-splicing fitness came to 0.0386.
For the variant C82G A111U A120U A145U, the reverse-splicing fitness turned out to be 0.0429.
For the variant C82G A111U A120U A145G, the reverse-splicing fitness was 0.043.
With C82G A111U A120G A145U C150G C169A, the reverse-splicing fitness was found to be 0.00944.
With C82G A111U A120G A145U C150G C169U, the reverse-splicing fitness amounted to 0.00825.
The same measure for C82G A111U A120G A145U C150G C169G: 0.00774; for C82G A111U A120G C150G C169U U176C: 0.0123.
The same measure for C82G A111U A120G C150G C169U U176G: 0.00592.
Regarding C82G A111U A120G C150G C169U U176A, the reverse-splicing fitness is 0.00893.
As for C82G A111U A120G A145U C150A C169U U176C, the reverse-splicing fitness stood at 0.0142.
Take C82G A111U A120G A145U C150A C169U U176G: the reverse-splicing fitness amounted to 0.00528.
The same measure for C82G A111U A120G A145U C150A C169U U176A: 0.0183.
Consider C82G A111U A120U A145G C169U U176A, for which the reverse-splicing fitness was 0.00386.
With C82G A111U A120U A145G C169U U176C, the reverse-splicing fitness stood at 0.004.
Turning to C82G A111U A120U A145G C169U U176G, the reverse-splicing fitness was 0.00203.
As for C82G A111U A120U A145U C150U C169A U176A, the reverse-splicing fitness worked out at 0.00283.
For C82G A111U A120U A145U C150U C169A U176G, the reverse-splicing fitness stood at 0.00252.
